Assay [1] deals with T1, human GLP-1 receptor (human, UniProt P43220 24-463). The experiment in a line: cell-based or functional assay.
For assay [2], the target named is T1, human GLP-1 receptor. The experiment in a line: SPA displacement assay; IC50 at 2.0% HSA over IC50 at 0.001% HSA. The method, then: (§1) A shift in the binding affinity, $IC50$, is an indication that the peptide in question binds to albumin, and thereby a prediction of a potential protracted pharmacokinetic profile of the peptide in question in animal models.
(§2) 50 ul (micro liter) HSA ("high albumin" experiment containing 2% HSA), or buffer ("low albumin" experiment containing 0.001% HSA), was added to Optiplate, and 25 ul of test compounds were added. 5-10 ug membrane protein/sample was added (50 ul) corresponding to 0.1-0.2 mg protein/ml (to be preferably optimised for each membrane preparation). SPA-particles (Wheatgerm agglutinin SPA beads, Perkin Elmer, #RPNQ0001) were added in an amount of 0.5 mg/well (50 ul). […] The plates were sealed with PlateSealer and incubated for 120 minutes at 30° C. while shaking. The plates were centrifuged (1500 rpm, 10 min) and counted in Topcounter.

Assay [3] deals with T1, human GLP-1 receptor. Nature of the assay: SPA, displacement of 125I-GLP-1(7-36)NH2 from hGLP-1R BHK membranes, high HSA (2.0%). The method, then:
as §1, §2

In assay [4] the target is T1, human GLP-1 receptor. Nature of the assay: SPA, displacement of 125I-GLP-1(7-36)NH2 from hGLP-1R BHK membranes, low HSA (0.001%). The method, then: as §1, §2

Numbered stars: 1 amine (or outer) side, 2 acyl side, 3 side chain; on linkers, the order of the positions; unused ones are H or OH. Square brackets hold non-standard residues; d marks the D form. Side chains are listed from the residue outwards. Ends that are not written are not given here. * marks the point of attachment. Dodecanoyl(12-OPh(4-COOH)) = O=C(O)c1ccc(OCCCCCCCCCCCC(=O)*)cc1; Decanoyl(10-(4-HOOC-PhO)) = O=C(O)c1ccc(OCCCCCCCCCC(=O)*)cc1; γGlu = O=C(O)[C@H](CCC(=O)[*:2])N[*:1]; C14 diacid = O=C(O)CCCCCCCCCCCCC(=O)*; AEEA = NCCOCCOCC(=O)O; Aib = CC(C)(N)C(=O)O

On to HAEGTFTSDVSSYLEEQAARK([AEEA-AEEA-γGlu-Decanoyl(10-(4-HOOC-PhO))])FIAWLVRGK([AEEA-AEEA-γGlu-Decanoyl(10-(4-HOOC-PhO))]) (ends and bridges not checked), for which the “EC50/pM (in vitro potency, cAMP formation, AlphaScreen)” value (“EC50/pM” below) with human GLP-1 receptor [1] is 62 pM. Besides, in the assay with human GLP-1 receptor [2], the “Ratio [(IC50/nM) high HSA]/[(IC50/nM) low HSA]” value (“Ratio” below) is 101. The half-maximal inhibitory concentration (IC50) (as a rule, the concentration needed to halve the response being measured) came out at 0.029 µM with human GLP-1 receptor [3] and 0.00029 µM in the assay with human GLP-1 receptor [4].

On to H[Aib]EGTFTSDVSSYLEK([AEEA-AEEA-γGlu-C14 diacid])QAVRK([AEEA-AEEA-γGlu-C14 diacid])FIAWLVR, for which the “EC50/pM” value with human GLP-1 receptor [1] came to 159 pM. For the same molecule, the “Ratio” value with human GLP-1 receptor [2] came out at 57. The concentration for half-maximal inhibition (IC50) in the assay with human GLP-1 receptor [3] was found to be 0.08 µM; with human GLP-1 receptor [4], 0.00141 µM.

Regarding HAEGTFTSDVSSYLEEQAARK([AEEA-AEEA-γGlu-Dodecanoyl(12-OPh(4-COOH))])FIEWLVRGK([AEEA-AEEA-γGlu-Dodecanoyl(12-OPh(4-COOH))])GEG (also called 32), the “EC50/pM” value with human GLP-1 receptor [1] worked out at 76 pM. Further, in the assay with human GLP-1 receptor [2], the “Ratio” value was found to be 2050. For the same molecule, the 50% inhibitory concentration (IC50) in the assay with human GLP-1 receptor [3] was 0.369 µM; with human GLP-1 receptor [4], 0.00018 µM.

Regarding H[Aib]EGTFTSDVSSYLEK([AEEA-AEEA-γGlu-C14 diacid])QAVRK([AEEA-AEEA-γGlu-C14 diacid])FIAWLVRG, in the assay with human GLP-1 receptor [1], the “EC50/pM” value came out at 242 pM. Moreover, the “Ratio” value with human GLP-1 receptor [2] is 157. The IC50 was 0.06 µM with human GLP-1 receptor [3] and 0.00038 µM with human GLP-1 receptor [4].

With H[Aib]EGTFTSDVSSYK([AEEA-AEEA-γGlu-Decanoyl(10-(4-HOOC-PhO))])EEQAARK([AEEA-AEEA-γGlu-Decanoyl(10-(4-HOOC-PhO))])FIEWLVG, the “EC50/pM” value in the assay with human GLP-1 receptor [1] came to 468 pM. Also, the “Ratio” value with human GLP-1 receptor [2] stood at 79. In addition, the half-inhibitory concentration (IC50) with human GLP-1 receptor [3] was found to be 0.446 µM; with human GLP-1 receptor [4], 0.00568 µM.

Turning to H[Aib]EGTFTSDVSSYLEEQAARK([AEEA-AEEA-γGlu-Decanoyl(10-(4-HOOC-PhO))])FIEWLVRGK([AEEA-AEEA-γGlu-Decanoyl(10-(4-HOOC-PhO))])GEG (also called 31), in the assay with human GLP-1 receptor [1], the “EC50/pM” value was determined as 37 pM. Besides, in the assay with human GLP-1 receptor [2], the “Ratio” value was found to be 629. Further, the half-inhibitory concentration (IC50) with human GLP-1 receptor [3] worked out at 0.22 µM; in the assay with human GLP-1 receptor [4] it was 0.00035 µM.

For the origin of these results see patent US9266940 (Novo Nordisk, dated 2016).
